Assay results published in publication doi:10.1101/2023.12.10.570962 (bioRxiv, 2023).

Biological target: Legionella collagen-like protein (Lcl) from L. pneumophila strain 130b, intact, residues 1-401 (Legionella pneumophila strain 130b)
Assay: SEC-MALS

Legionella collagen-like protein (Lcl) from L. pneumophila strain 130b, intact, residues 1-401 (natural protein)
stoichiometry N: 3
